This note sets out measurements from patent US7482138 (TRUSTEES OF COLUMBIA UNIVERSITY IN THE CITY OF NEW YORK, dated 2009).

The target of the test is Rac1V12, pre-loaded with [γ-32P] GTP (UniProt P63000 1-192). Briefly: overlay assay, immobilised Myc-tagged kinase probed with [γ-32P] GTP-loaded GTPase. The source says: PAK4 and PAK5 interact with activated Rac and Cdc42. 293 cells were transfected with equal amounts of expression vectors, encoding the following Myc-tagged proteins: wild type PAK4 (Myc-PAK4), wild type PAK5 (Myc-PAK5), or PAK5ΔGBD. After transient expression, the Myc-tagged proteins were immunoprecipitated from whole cell lysates using a mouse anti-Myc antibody and protein A sepharose. The immunocomplexes were separated by SDS-PAGE and transferred to a PVDF membrane. The membranes were then probed with purified RhoV14, Rac1V12 or Cdc42V12, as indicated. The GTPases were pre-loaded with [γ-^32P] GTP as described in the Materials and Methods. A portion of the lysate was used for Western blot analysis (WB) with an anti-Myc antibody to measure the amount of each transfected protein in the lysates.
The overlay assay is described in (27). Briefly, 293 cells were transfected with 10 µg of empty vector, MycPAK4, or Myc-PAK5. PAK4 and PAK5 were then immunopurified using anti-Myc antibody (9E10, Santa Cruz) and the immunopurified proteins were separated on SDS-PAGE and transferred to a PVDF membrane. The membrane was then washed and blocked with phosphate-buffered saline (PBS) containing 1% bovine serum albumin (BSA) and 100 mM dithiothreitol (DTT). Recombinant GTPases (2 µg) were pre-loaded with [γ-^32P] GTP and were incubated for 5 min with the PVDF membrane. […]

B1: Myc-tagged wild type PAK5 (human p21-activated kinase 5) (enzyme, not shown: small tags and cut ends)
chain: MFGKKKKKIEISGPSNFEHRVHTGFDPQEQKFTGLPQQWHSLLADTANRPKPMVDPSCITPIQLAPMKTIVRGNKPCKETSINGLLEDFDNISVTRSNSLRKESPPTPDQGASSHGPGHAEENGFITFSQYSSESDTTADYTTEKYREKSLYGDDLDPYYRGSHAAKQNGHVMKMKHGEAYYSEVKPLKSDFARFSADYHSHLDSLSKPSEYSDLKWEYQRASSSSPLDYSFQFTPSRTAGTSGCSKESLAYSESEWGPSLDDYDRRPKSSYLNQTSPQPTMRQRSRSGSGLQEPMMPFGASAFKTHPQGHSYNSYTYPRLSEPTMCIPKVDYDRAQMVLSPPLSGSDTYPRGPAKLPQSQSKSGYSSSSHQYPSGYHKATLYHHPSLQSSSQYISTASYLSSLSLSSSTYPPPSWGSSSDQQPSRVSHEQFRAALQLVVSPGDPREYLANFIKIGEGSTGIVCIATEKHTGKQVAVKKMDLRKQQRRELLFNEVVIMRDYHHDNVVDMYSSYLVGDELWVVMEFLEGGALTDIVTHTRMNEEQIATVCLSVLRALSYLHNQGVIHRDIKSDSILLTSDGRIKLSDFGFCAQVSKEVPKRKSLVGTPYWMAPEVISRLPYGTEVDIWSLGIMVIEMIDGEPPYFNEPPLQAMRRIRDSLPPRVKDLHKVSSVLRGFLDLMLVREPSQRATAQELLGHPFLKLAGPPSCIVPLMRQYRHH
notes: also called Myc-PAK5
For the molecule B1, the binding result is “binds”.
